Assay results reported in patent publication US20020081638.

Test system: free histones (mixture of H1, H3, H2B, H2A and H4; Boehringer Mannheim)

GST-SUV39H1(82-412) H320R
in vitro HMTase assay with free histones, activity against the unmutated product: the latter mutation (H320R) resulted in an hyperactive enzyme with approximately 20-fold increased activity
